According to the DeepSol protein solubility set:

assay: soluble on expression in E. coli; label from the status in PepcDB or PDB records

Sequence | soluble on expression in E. coli
MAHHHHHHMSFSKFMKCSTQLSRRLSNFEGKGTFNKSAFYNCTREKCSIVCLRKKMNVELKKICEISKMNKRNYSSECENYEFKAETKKLLQIVAHSLYTDKEVFIRELISNSSDAIEKLRFLLQSGNIKASENITFHIKVSTDENNNLFIIEDSGVGMNKEEIIDNLGTIAKSGSLNFLKKLKEQKESINRNNNINKNEIDNKINNNNNMDVPIEGNEKSQEGDIIGQFGVGFYSSFVVSNKVEVFTRSYDNNSSKGYHWVSYGNGTFTLKEVDNIPKGTKIICHLKDSCKEFSNIQNVQKIVEKFSSFINFPVYVLKKKKILQTRKDIEQNELNDHTQQNELNHHNDQNDHTQQNELNHHNDQNDHTQQNELNHHNDQNDHTQQNELNHHVEHHKNVVENKNDEYEKNMDNRTSDNIKPESLSKQNDYENMNQCNNEETVLNRTKELNEEHIVEEILVNKQKPLWCKDNVTEEEHRHFFHFLNKNKSYNEDNKSYLYNMLYKTDAPLSIKSVFYIPEEAPSRLFQQSNDIEISLYCKKVLVKKNADNIIPKWLYFVKGVIDCEDMPLNISRENMQDSSLINKLSRVVVSKILKTLEREADINEEKYLKFYKNYNYNLKEGVLEDSNKNHYKNSLMNLLRFYSINQNKFISLKQYVNNFRNNQKNIYYFSANDKNVALNSPYMEPFKKQNIDVLLLLEEIDEFVLMNLQTYKDAKFVSIDTSQNEDFDEAVLNTNKNDNEKKQSIFFNDEQKKELQAYFKQVLGSK | not soluble
MEKNYYVCTGCGMLCDDIEVDVENNKINKVYTACRIGVAHMKDGKESAAFLVDNKPVDETTAISEAATILKNAKNPLIFGLGTSSNEAQKLAIELAKKTSATLDDASSFSLGEVIEALLNNKTKVCTLDDVRNKADVSIFWGTDPSDSHPRQLSKYAYFPRGTEKQRGWEEERTAICIDVRKSHTAKICGNYFFQIPPGGDAEFIDALIAALAGKLPKTSYNFPPKRILELANILKGAKFGVVFAGRGLVYSLDNLEPLIRLMNALNEKANFHLVPMIRQYNTRGFNENLFKETGYVNSVKFEDGTVKHGPEYSVVESLKEKTVDAALIIGSDPFSILPRSIAKNLLEVPVIVLDPCETLTSRNAKVYISTAIDGVESGGSAIRMDGVKVDFKPAVETKRPSDETVLKKIMEAL | not soluble
MPVAPNPLLQANAIAKTSRSATVQADKPLQALGDKGDAFGQVMARQGRDKVTGQDDKVAQAKPKDKPDAAAGGKKDPAGKAAVADDGNKLPEEDSAQADTGVRDASLVAGQVTDAQPGAQLIQAQAEAVAPVLQAATAQTQVSAALPEEPSAEEAFDPDADPLANLPTLRLALEHSAQAKGGTSAHALDAAQAQGEEGQAAVNTLANLVEDTDGESAESGGKAFGALLEDGLKDTKSASSDTRIDDFANRLASLTQAATAKTANAVPATANPLHQPLPMNQNAWAEGLVNRVMYLSSQNLKSADIQLEPAELGRLDIRVNVAADQATQVTFISGHAGVRDALDSQVHRLRELFAQQGLAQPDVNVADQSRGQQQQQGQAQGSNLSGVAARRAEQGGAEAVDSARPLEQQVVVGDSAVDYYA | not soluble
MFLINGHKQESLAVSDRATQFGDGCFTTARVIDGKVSLLSAHIQRLQDACQRLMISCDFWPQLEQEMKTLAAEQQNGVLKVVISRGSGGRGYSTLNSGPATRILSVTAYPAHYDRLRNEGITLALSPVRLGRNPHLAGIKHLNRLEQVLIRSHLEQTNADEALVLDSEGWVTECCAANLFWRKGNVVYTPRLDQAGVNGIMRQFCIRLLAQSSYQLVEVQASLEESLQADEMVICNALMPVMPVCACGDVSFSSATLYEYLAPLCERPN | soluble
MVYPRLLINLKEIEENARKVVEMASRRGIEIVGVTKVTLGDPRFAETLRKAGIGILGESRIRNVLRMKKAGIEGPFMLLRLPMMSELVEDVKHFDYIMVSDPDVAKKVDELSREMKRNVKIIYMIDVGDLREGVWFEKAVEEIAQCRGANIVGIGTNFGCYGGIIPTREKFEILLDIKEKLEKNHGFNIEIVSGGNTPALYALENGEIPEGINQLRIGEAIVLGRDITNNRVIDWLSQNTFLIEAEVIEVKEKPSVPLGKRGLDVFGRKVDFVDRGIRKRAICALGEQDIDSRGLIPVDKGVEVLHASSDHIVLDVTDFGDVKVGDVFRFRMTYSCLLKAMTSPFVEKVYEPSI | soluble
MGSDKIHHHHHHMRKNRITEMLATASTIVLDGALATELEARGCDLTDPLWSAKVLVENPALIYQVHFDYFKAGAQCAITASYQATPQGFEARGYSEAESLALIAKSVQLAAQARDDYRRDNTQAGTLLVAGSVGPYGAYLADGSEYRGDYQLPQADMMAFHRPRIAALHEAGADLLACETLPSFAEIEALIALLAEFPQAQAWFSFTLRDSEHLSDGTPLRTVLERVNACSQVVAVGLNCIALEKVTPALMHLSSLTDLPLVVYPNSGEQYDAVTKTWSSAHDTACSLTAYLPEWQTAGARLIGGCCRTTPADIAGIARCCQQ | not soluble
MGSDKIHHHHHHKIEELTAVPLQIGYEKTLHLIFPTEVKYYSIGGDYVIGEKVVNCPGIIRLKAAEENFPGETTLSVVTADTKFYSYSISYNAHPAQSYVRIGGEAPTPHTLPVGKEKQLFLIFPAGITYVDYGSTNVEVDKAEGVDNILAVKAVQPYKEDTNISVVLEGGKFYTFDLRYVPAPERFSFVIDKEDTQRVAILDEKERSYGQKERIREAVAKRTPLDLGLRDKNSGMEFEVGNIFIDGDVLLLRMTLTNRTQIGYTTDFMRFYIQDAKIRKKTAVQQLEQNILFTFDYPEEIPAHESRTFTVAMNKFTIPDKKRLIIEIQERNGGRHFLYKLKNKSLLTAEEVFRSRKQQETEDEADKILRRIAR | not soluble
VPYKGYLIDLDGTIYQGKNRIPAGERFIKRLQERGIPYLLVTNNTTRTPEMVQSMLANQFHVETSIETIYTATMATVDYMNDMNRGKTAYVIGETGLKSAIAAAGYVEELENPAYVVVGLDSQVTYEMLAIATLAIQKGALFIGTNPDLNIPTERGLMPGAGALNALLEAATRVKPVFIGKPNAIIMNKSLEVLGIQRSEAVMVGDNYLTDIMAGIQNDIATILVTTGFTRPEEVPTLPIQPDHVLSSLDEWRL | soluble
RRVADEIVISHPELADEVDTVCNKIQAGKPMPESLRELVVRTGLEELMGLVSMLSHASRIGGSLVNSLREYTEDYRDKRQQAAEEIAAKIPVK | not soluble
MRGSHHHHHHGSAPIKVGDAIPAVEVFEGEPGNKVNLAELFKGKKGVLFGVPGAFTPGCSKTHLPGFVEQAEALKAKGVQVVASLSVNDAFVTGEWGRAHKAEGKVRLLADPTGAFGKETDLLLDDSLVSIFGNRRLKRFSMVVQDGIVKALNVEPDGTGLTCSLAPNIISQL | soluble
MSFVPCTTAIYAFSKNHQPVRTVQSGETFVIETYDCFQNQITSSETPFDSIDWNHINPATGPIYIEGAEPGDILAVKIEQIRLKGQGVMAVGPGLGVLGDRIPQFEAKMIPVEENRAVFDEHLSIPLNPMIGVIGVAPSGEDVSCGTPGPHGGNMDTKLITTGATVYFPVFVKGALFALGDLHAAMGDGEIGVSGIEISGEVTVTVRVMKGYSLNHPLLQNDDGIATIVSAKTLDEAVKQSVEEMVNLLLPHTPLTLNHLTMVLSAVGQTQISQVVDPLVTARFFVPRFVLEAYGIRLFED | not soluble
MEGLLIDYVQPGSIAEELEIEAGDRLVAINGQDLRDIIDFSFYAHDEELALEIVKPSGDHWEAEIERDGDEPLGLVFAPPVPAQCGNKCVFCFVHQLPLEHHHHHH | soluble
MGSDKIHHHHHHMSDNDLQRRILDAVDAGFDAQLATTRDFVAIPSTRGAEGPCQDMIGDLLRQRGYEVDDWHIDLDDLKDLRGYGPIEHDFSKARTVVGTYRPSTNAGRSLILQGHCDVVPAGPLEMWDTPPFSPVIKQGRMYGRGACDMKSGTIGALYALDAIKAAGLRPTGRIHFQSVIEEESTGVGALSTLQRGYRADACFIPEPTGGKMVRSQVGVIWFRLKVRGYPVHVATAGTGSNAITAAYHLIDALGKLEEEWNRRAASDPHFKTLAHPINFNPGIIKGGDWASSVPAWCDVDCRIAILPGWSVADHQAEILACVSAAARDHRFLSNNPPQVEWSGFLSEGYELKNAAEPEAAFGKAYQAVYGSEVEDLVFTALTDTRFYGLNYNIPSLCFGASGEAMHGFNEYIDLESLRQSTKATALFIAEWCGVEPA | not soluble
GQLVESGGGSVQAGGSLRLSCAASGIDSSSYCMGWFRQRPGKEREGVARINGLGGVKTAYADSVKDRFTISRDNAENTVYLQMNSLKPEDTAIYYCAAKFSPGYCGGSWSNFGYWGQGTQVTVSSH | soluble
MKKSLIAFILIFMLVLSGCGMKDNDKQGSNDNGSSKSPYHRIVSLMPSNTEILYELGLGKYIVGVSTVDDYPKDVKKGKKQFDALNLNKEELLKAKPDLILAHESQKATANKVLSSLEKQGIKVVYVKDAQSIDETYNTFKQIGKLTHHDKQAEQLVEETKDNIDKVIDSIPAHHKKSKVFIEVSSKPEIYTAGKHTFFNDMLEKLEAQNVYSDINGWNPVTKESIIKKNPDILISTEAKTRSDYMDIIKKRGGFNKINAVKNTRIEVVNGDEVSRPGPRIDEGLKELRDAIYRK | not soluble
AAPDEITTAWPVNVGPLNPHLYTPNQMFAQSMVYEPLVKYQADGSVIPWLAKSWTHSEDGKTWTFTLRDDVKFSNGEPFDAEAAAENFRAVLDNRQRHAWLELANQIVDVKALSKTELQITLKSAYYPFLQELALPRPFRFIAPSQFKNHETMNGIKAPIGTGPWILQESKLNQYDVFVRNENYWGEKPAIKKITFNVIPDPTTRAVAFETGDIDLLYGNEGLLPLDTFARFSQNPAYHTQLSQPIETVMLALNTAKAPTNELAVREALNYAVNKKSLIDNALYGTQQVADTLFAPSVPYANLGLKPSQYDPQKAKALLEKAGWTLPAGKDIREKNGQPLRIELSFIGTDALSKSMAEIIRADMRQIGADVSLIGEEESSIYARQRDGRFGMIFHRTWGAPYDPHAFLSSMRVPSHADFQAQQGLADKPLIDKEIGEVLATHDETQRQALYRDILTRLHDEAVYLPISYISMMVVSKPELGNIPYAPIATEIPFEQIKPVKP | soluble
MSQSGEQRRYTLGEFFSLAGDERMELYEGTIVLMYPVPYEHEGVVANLIAEFRMALKGSPCLVFGSNLQVVLLFEDEQKGTKNVTVLPDLSIICDRTKLRQGRCYGAPDLVVEVLSPSTARNDRLLKRLYYEKAGVREYWLVDYQHKVMEKYVWQSGAFQLEDVYDAANGAAASTVFPEVRFSVKEIFAFLTS | not soluble
MNSRMSKLRRSISRSVFQLNSSLSRQNSLNGLVDLPTMSNTTLVDKFATPSNFRQLRDLIRNNNELLAEVVTAFEEKAALDFHYSKTLKKISIRLHKLTQSVESGIDKGWTNVAEQFDIHATIHSNLGSAITEDIIQPLRSIQSNQQKTIRAADNFVEREIRKLKDKKDETQKMKRSLYVLAKELEKTENSAEREKAQPEKFALRRKKYKDQMIRSEDDYVWQTVDLEKQRRMTENVLRKGVESMESVERQRLAHCQTALGRYKRKIETLGPNLRQMFERHSNNLELAVDSVPEDYIQTIQPSTSAVNHITLIDLHAENFGEVMSSTRRRQNLERVSGVLDSELKRLYNNQTADVMVSNSKQISVLEFIEYLYYKLNDSINIVDGGQNRGFHRLSRFQHKIKDKSGLPMTILTIPLSGDNNSLPPPCLSMEASTAYPSPRGSGEYEEYEKISDDGFYSTTTTSSNGGPIRTTTTFDEPTSSPPTICRVLYDFEPKHADEIEIREGQCVLVEDRIGDDWLIGHVISQHDNSSIDPRSGRFPTTYVSLRQ | not soluble
MSLTLKLGFKPFSFHLLRSLRTSQGIIKKKEGWLIKLENKTGRLGWGEIAPLNLSELNICGKILEKLGNSPSRQTLEEGIPNWPGSLAFAIGAALAEIDYLIGNDSKNKWLSVTSSALLLPNEESILLNTLQSVLDKHKETQKELTFKWKIRNTSSDSDLNLLKKILFLLPENTRLRIDANGGLNRIQAHEWAQALQNEARIEWLEQPLAVDDIEGMNELAQMLPIALDESLIYNPSLRKSWTGWQIRRPLIEGDPRILLKEFKEKNSYISISTSFETGIGKRWIEHFAALQLRGLTPTQPGLAPGWCPKGPLFCQNPQLVWEAAEGHHHHHH | soluble
